The target of this assay is T1, mouse Fc P-Selectin (CD62P-Fc Chimera, from R&D Systems) (mouse, UniProt Q01102 42-709).
T1 construct: Bought reagent, coated in the flow chamber; also called mouse P-selectin; not shown: Fc part of the commercial chimera
T1 sequence (looked up): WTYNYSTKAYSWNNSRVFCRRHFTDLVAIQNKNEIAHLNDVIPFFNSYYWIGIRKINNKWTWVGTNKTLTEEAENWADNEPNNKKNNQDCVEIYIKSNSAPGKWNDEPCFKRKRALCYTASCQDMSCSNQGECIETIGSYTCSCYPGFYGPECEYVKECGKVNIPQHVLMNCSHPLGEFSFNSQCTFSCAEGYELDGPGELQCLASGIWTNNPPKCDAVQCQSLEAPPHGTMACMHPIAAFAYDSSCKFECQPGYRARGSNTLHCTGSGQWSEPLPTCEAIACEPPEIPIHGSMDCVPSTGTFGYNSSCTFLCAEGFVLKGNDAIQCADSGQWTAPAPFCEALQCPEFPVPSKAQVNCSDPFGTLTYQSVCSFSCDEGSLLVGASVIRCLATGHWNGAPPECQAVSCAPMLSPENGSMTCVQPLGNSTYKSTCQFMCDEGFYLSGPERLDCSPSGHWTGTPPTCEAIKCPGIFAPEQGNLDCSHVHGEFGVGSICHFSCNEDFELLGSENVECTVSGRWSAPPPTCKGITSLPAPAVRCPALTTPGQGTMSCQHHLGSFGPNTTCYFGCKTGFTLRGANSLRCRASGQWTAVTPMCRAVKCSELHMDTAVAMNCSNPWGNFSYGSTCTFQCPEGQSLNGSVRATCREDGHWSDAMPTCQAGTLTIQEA
The experiment in a line: flow chamber adhesion of microvesicles on a mouse P-selectin-Fc coating. The method, then:
To test the effective binding, targeted microvesicles prepared according to comparative example 4 were injected in a flow chamber set up comprising a coating of mouse Fc P-Selectin (CD62P-Fc Chimera, from R&D Systems (Minneapolis, Minn., USA). Microvesicles (at equivalent number of 80×10⁶/400 μL TBS++) were injected through the flow chamber (FCS2, Bioptech, USA) in a bolus fashion and their adhesion onto the mouse P-selectin coating layer was assessed over a period of 10 min at a flow rate of 1.0 mL/min (shear rate of 714 s⁻¹) in the presence of 50% human plasma in PBS (v:v, Biomeda collected on citrate, ref. ES1020P, Stehelin & Cie AG). A quantitative analysis of microvesicles accumulation was performed by counting the number of microvesicles adhering in the observed area at 2 min intervals over the total 10 min infusion, using the image processing program Analysis FIVE (SIS, Germany). After 10 min, five pictures were taken randomly and the number of bound microvesicles was measured and expressed as the number of bound bubbles at 10 min (NBB). Each observed area was 183×137 μm, as measured with the aid of a stage micrometer. Measurement was performed between the middle and the exit of the chamber.
Similarly, suspensions of targeted microvesicles prepared according to example 6 (Fr-1 targeting ligand) and according to example 8 (monomeric FR-1) were injected in a flow chamber as described above, and their binding activity determined according to the above procedure.

Data on three molecules can be found in patent US20130156706A1 (BRACCO SUISSE S A, published 2013).

B1: Fr-1, purified fragment of rPSGL-Ig (SEQ ID NO:3), dimeric, thiolated and bound to DSPE-PEG-maleimide on gas-filled microvesicles (Example 6) (other)
chain: QATEYEYLDYDFLPETEPPEMLRNSTDTTPLTGPGTPESTTVEPAARPHTCPPCPAPEALGAPSVFLFPPK
modifications: glycosylated (fragment of glycosylated rPSGL-Ig); thiolated with SATA and deacetylated, then coupled to DSPE-PEG-maleimide of the microvesicle envelope
notes: Disulfide-linked homodimer, about 32 kDa by MALDI-ToF; also called dimeric Fr-1
For B1, the binding result is “binds”.

B2: Monomeric Fr-1 (Fr-1 of SEQ ID NO:3 reduced with TCEP) bound to DSPE-PEG-maleimide on gas-filled microvesicles (Example 8) (other)
chain: B1 chain
modifications: glycosylated (fragment of glycosylated rPSGL-Ig); disulfide bonds reduced with TCEP, free cysteine thiols coupled to DSPE-PEG-maleimide of the microvesicle envelope
notes: also called reduced monomeric Fr-1
For B2, the binding result is listed as “binds”.

B3: rPSGL-Ig (glycosylated SEQ ID NO: 4), thiolated and bound to DSPE-PEG-maleimide on gas-filled microvesicles (Example 4) (Fc fusion)
chain: QATEYEYLDYDFLPETEPPEMLRNSTDTTPLTGPGTPESTTVEPAARPHTCPPCPAPEALGAPSVFLFPPKPKDTLMISRTPEVTCVVVDVSHEDPEVKFNWYVDGVEVHNAKTKPREEQYNSTYRVVSVLTVLHQDWLNGKEYKCKVSNKALPVPIEKTISKAKGQPREPQVYTLPPSREEMTKNQVSLTCLVKGFYPSDIAVEWESNGQPENNYKTTPPVLDSDGSFFLYSKLTVDKSRWQQGNVFSCSVMHEALHNHYTQKSLSLSPGK
modifications: glycosylated; amino groups thiolated with Traut reagent (2-iminothiolane) and coupled to DSPE-PEG-maleimide of the microvesicle envelope
notes: also called recombinant PSGL-Ig; dimPSGL-1
On to B3, for which the binding result was “binds”.
